Data on 2 molecules can be found in patent publication US20200407442A1 (WUXI BIOLOGICS IRELAND, published 2020).

The target of test [1] is T1, full-length human LAG-3 on cells (human, UniProt P18627 23-525).
T1 construct: Expressed on Flp-In-293, CHO or 293F transfectants; also called hPro1.FL; cell surface human LAG-3
T1 sequence: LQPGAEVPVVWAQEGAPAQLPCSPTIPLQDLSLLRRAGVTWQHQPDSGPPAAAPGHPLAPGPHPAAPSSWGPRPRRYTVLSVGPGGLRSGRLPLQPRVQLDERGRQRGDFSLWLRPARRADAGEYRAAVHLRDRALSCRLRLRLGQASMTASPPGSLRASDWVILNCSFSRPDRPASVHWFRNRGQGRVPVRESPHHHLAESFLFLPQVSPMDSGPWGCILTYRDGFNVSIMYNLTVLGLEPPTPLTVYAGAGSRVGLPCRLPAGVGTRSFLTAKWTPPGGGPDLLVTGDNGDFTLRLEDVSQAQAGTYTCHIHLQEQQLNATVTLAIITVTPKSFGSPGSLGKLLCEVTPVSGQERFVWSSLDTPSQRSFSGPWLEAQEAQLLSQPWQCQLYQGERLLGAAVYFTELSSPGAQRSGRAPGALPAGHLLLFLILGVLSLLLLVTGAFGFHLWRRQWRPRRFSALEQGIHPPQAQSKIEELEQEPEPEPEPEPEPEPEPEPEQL
The test can be described thus: FACS on human LAG-3 transfectant cells. The protocol: Various concentrations of testing antibodies, positive and negative controls were added to human LAG-3 transfectant cells, and then the binding of antibodies onto the surface of the cells was detected by corresponding PE-labeled secondary antibodies.

For another test, the target named is T2, Variant 2: xPro1.FL-x2 (human; mouse).
T2 construct: Chimeric full-length LAG-3 on transfected 293F cells
T2 chain: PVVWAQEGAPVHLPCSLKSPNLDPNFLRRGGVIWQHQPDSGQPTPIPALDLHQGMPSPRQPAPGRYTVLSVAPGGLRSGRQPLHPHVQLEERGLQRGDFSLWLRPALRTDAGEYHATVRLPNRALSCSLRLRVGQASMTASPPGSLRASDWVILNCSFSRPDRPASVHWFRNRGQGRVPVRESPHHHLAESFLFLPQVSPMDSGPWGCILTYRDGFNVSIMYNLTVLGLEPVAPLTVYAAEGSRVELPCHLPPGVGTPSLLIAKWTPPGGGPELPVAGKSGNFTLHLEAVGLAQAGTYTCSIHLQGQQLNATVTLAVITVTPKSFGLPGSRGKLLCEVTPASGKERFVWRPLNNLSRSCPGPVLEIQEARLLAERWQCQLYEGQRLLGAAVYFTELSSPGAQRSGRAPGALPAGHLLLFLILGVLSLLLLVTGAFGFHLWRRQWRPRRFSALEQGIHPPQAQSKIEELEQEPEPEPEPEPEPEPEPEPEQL
The test can be described thus: FACS, 1 ug/mL antibody, transfected 293F cells. The protocol:
(§1) The 10 variants were cloned into pcDNA3 vector and used for 293F cell transfection. Briefly, 293F cells were diluted to a density of 1×10⁶ cells/mL with FreeStyle 293F medium and aliquots of 3 mL/well were added to 24-well plate. Transfections were performed using 293fectin reagent (Life Technologies). For each transfection, 3 μg of DNA were diluted in 150 μOpti-MEM I-reduced serum medium (Life Technologies), and then combined with 6μL 293fectin reagent pre-diluted in 150 μL Opti-MEM I reduced serum medium. The DNA/[…] mixture was allowed to stand at 25° C. for 20 min before being added to the culture. The transfected cells were analyzed by flow cytometry at 48 h post-transfection.
(§2) Binding of antibodies to chimeric LAG-3 variants or full length human/mouse LAG-3 was analyzed by flow cytometry. Briefly, 1 μg/mL antibodies were incubated with chimeric LAG-3-expressing transfected 293F cells for 1 hour at 4° C., and then incubated with 3 μg/mL goat anti-human IgG Fc R-PE (Jackson) for 40 min at 4° C. Cells were analyzed with flow cytometer.
A general note: In flow cytometry, cells or beads pass a laser one at a time.

A further test concerns the target T3, Variant 9: xPro1.FL-x9 (human; mouse).
T3 construct: Chimeric full-length LAG-3 on transfected 293F cells
T3 chain: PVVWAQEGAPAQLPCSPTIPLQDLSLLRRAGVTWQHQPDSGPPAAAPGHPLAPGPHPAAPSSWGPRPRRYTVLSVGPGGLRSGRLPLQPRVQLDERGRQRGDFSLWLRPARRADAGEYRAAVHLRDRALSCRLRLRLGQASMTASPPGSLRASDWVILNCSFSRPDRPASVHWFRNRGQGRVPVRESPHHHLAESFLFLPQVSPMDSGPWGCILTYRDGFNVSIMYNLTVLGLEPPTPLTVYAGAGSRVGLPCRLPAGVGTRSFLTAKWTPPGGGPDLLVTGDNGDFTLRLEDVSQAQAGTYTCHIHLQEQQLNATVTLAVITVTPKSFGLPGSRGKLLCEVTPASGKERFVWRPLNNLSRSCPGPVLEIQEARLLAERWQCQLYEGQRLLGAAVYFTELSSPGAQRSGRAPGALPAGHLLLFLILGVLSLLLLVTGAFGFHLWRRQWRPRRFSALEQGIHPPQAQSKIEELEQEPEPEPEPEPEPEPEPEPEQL
The test can be described thus: FACS, 1 ug/mL antibody, transfected 293F cells. The protocol:
as §1, §2

The next test deals with T4, Variant 10: xPro1.FL-x10 (human; mouse).
T4 construct: Chimeric full-length LAG-3 on transfected 293F cells
T4 chain: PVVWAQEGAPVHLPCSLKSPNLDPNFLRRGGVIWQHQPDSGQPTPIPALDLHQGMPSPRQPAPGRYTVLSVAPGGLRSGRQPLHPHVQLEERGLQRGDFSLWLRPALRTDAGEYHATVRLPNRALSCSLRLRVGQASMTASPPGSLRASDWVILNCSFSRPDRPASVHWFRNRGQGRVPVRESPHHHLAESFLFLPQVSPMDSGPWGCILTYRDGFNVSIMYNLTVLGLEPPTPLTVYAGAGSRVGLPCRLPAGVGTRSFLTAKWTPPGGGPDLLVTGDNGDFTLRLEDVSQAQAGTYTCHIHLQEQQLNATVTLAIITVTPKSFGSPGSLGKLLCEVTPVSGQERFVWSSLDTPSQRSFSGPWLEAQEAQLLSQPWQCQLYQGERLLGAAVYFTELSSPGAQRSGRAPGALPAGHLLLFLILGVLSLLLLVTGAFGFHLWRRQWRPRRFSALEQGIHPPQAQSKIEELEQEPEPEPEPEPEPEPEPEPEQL
The test can be described thus: FACS, 1 ug/mL antibody, transfected 293F cells. The protocol:
as §1, §2

B1: 1.53.3-uAb-IgG4k (antibody, V domains shown)
VH: QVQLQQWGAGLLKPSETLSLTCGVYGGSFSGYYWSWIRQPPGMGLEWIGEINHRGNTNYNPSLKSRVTISEDTSKNQFSLRLSSVTAADTAVYFCTRGEDYSDYDYYGDFWGQGTLVTVSS
VL: EIVLTQSPATLSLSQGERATLSCRASQSISSYLAWYQQKPGQAPRLLIYAASNRATGIPARFSGSGSGTDFTLTISSLEPEDFAIYYCQQRSNWPLTFGGGTKVEIK
notes: Fully human antibody from OMT rats; IgG4 kappa by its name
Turning to B1, the midpoint of the response in test [1], the EC50, lay at 430 pM. In addition, the MFI with Variant 2: xPro1.FL-x2 stood at 45; with Variant 9: xPro1.FL-x9, 7030; with Variant 10: xPro1.FL-x10 it was 42.3. Besides, the “PE+ %” value with Variant 2: xPro1.FL-x2 turned out to be 1.77%; with Variant 9: xPro1.FL-x9, 97.3%; in the test with Variant 10: xPro1.FL-x10, 1.98%.

B2: 3.40.19-uAb-IgG4L (antibody, V domains shown)
VH: QLQLQESGPGLVKPSETLSLTCTVSGDSISSTSYYWGWIRQPPGKGLEWIGSFYYSGSTYYNPSLKSRVTISVDTSKNQFSLKLNSVTAADTAVYYCARMQLWSYDVDVWGQGTTVTVSS
VL: QSALTQPASVSGSPGQSITISCTGTSSDVGGYDYVAWYQQHPGKVPKLMIYDVSERPSGVSNRFSGSKSGNTASLTISGLQAEDEADYYCSSYTSTTTLVVFGGGTKLSVL
notes: Fully human antibody from OMT rats; IgG4 lambda by its name; also called 3.40.19-uAb-hIgG4L
Molecule B2 gave an EC50 in test [1] of 130 pM. The figures for the MFI in the test with Variant 2: xPro1.FL-x2, with Variant 9: xPro1.FL-x9 and with Variant 10: xPro1.FL-x10 were 40.6, 8320 and 68.5, respectively. For the same molecule, the “PE+ %” value worked out at 0.305% in the test with Variant 2: xPro1.FL-x2, 87.3% in the test with Variant 9: xPro1.FL-x9 and 0.988% with Variant 10: xPro1.FL-x10.

As a reminder, the EC50 is the concentration needed to bring the measured effect to its halfway point.
